Measured values taken from patent US9327008B2, “Cell-permeant peptide-based inhibitor of kinases” (Purdue Research Foundation, priority 2008, dated 2016).

Tests used:
Assay type in all cases: biochemical
Abl = biological target: T1, Abl (Homo sapiens, UniProt P00519); assay: Millipore radiometric kinase activity assay, Abl (h)
T1 construct: purchased Millipore (assay service)
Method: (§1) A commercial radiometric assay service (Millipore, Billerica, Mass.) was used to test the specificity and potency of peptides containing a coupled transduction domain and therapeutic domain, hereinafter “complete peptides”). In these assays, if the kinase is not inhibited by an inhibitor peptide, a positively charged substrate is phosphorylated with a radiolabeled phosphate group from an ATP.
(§2) In a final reaction volume of 25 μL, Abl (h) (5-10 mU) is incubated with 8 mM MOPS pH 7.0, 0.2 mM EDTA, 50 μM […] [SEQ ID NO: 48], 10 mM MgAcetate and [γ-^33P-ATP] (specific activity approx. 500 cpm/pmol, concentration as required). The reaction is initiated by the addition of the MgATP mix. After incubation for 40 minutes at room temperature, the reaction is stopped by the addition of 5 μL of a 3% phosphoric acid solution. 10 μL of the reaction is then spotted onto a P30 filtermat and washed three times for 5 minutes in 75 mM phosphoric acid and once in methanol prior to drying and scintillation counting.
(§3) IC50 values for inhibitor peptides were determined using Millipore's IC50Profiler Express service. The IC50 value was estimated from a 10-point curve of one-half log dilutions. For peptides tested for specificity, the concentration of the peptides that inhibited approximately 95% of MK2 activity was chosen to profile against a battery of kinases related to MK2, cell viability, or human disease from MilliporeKinaseProfiler service. In both assays, compounds were supplied in dimethylsulfoxide (DMSO). Every kinase activity measurement was conducted in duplicate.
(§4) Therapeutic inhibitor peptides were assayed for activity against human kinases related to MK2, cell viability, or human disease. The assays were performed using concentrations of therapeutic inhibitor peptides that yielded 2% to 8% of normal MK2 activity. Error is reported as the standard deviation between 2 samples, and “c” is rat AMPK whereas all other kinases used are human kinases.

AMPK = assay: Millipore radiometric kinase activity assay, AMPK (r); conditions: rat AMPK
Method: as §1
as §2, with “AMPK (r)” for “μL, Abl (h)”, “32” for “8”, “HEPES” for “MOPS”, “7.4, 0.65” for “7.0, 0.2”, “DTT, 0.012% Brij-35, 200 μM AMP, 200” for “EDTA, 50”, “49],” for “48],”
as §3, §4

GSK3β = biological target: T2, GSK3β (Homo sapiens, UniProt P49841); assay: Millipore radiometric kinase activity assay, GSK3β (h)
T2 construct: purchased Millipore (assay service)
T2 sequence (P49841 whole entry): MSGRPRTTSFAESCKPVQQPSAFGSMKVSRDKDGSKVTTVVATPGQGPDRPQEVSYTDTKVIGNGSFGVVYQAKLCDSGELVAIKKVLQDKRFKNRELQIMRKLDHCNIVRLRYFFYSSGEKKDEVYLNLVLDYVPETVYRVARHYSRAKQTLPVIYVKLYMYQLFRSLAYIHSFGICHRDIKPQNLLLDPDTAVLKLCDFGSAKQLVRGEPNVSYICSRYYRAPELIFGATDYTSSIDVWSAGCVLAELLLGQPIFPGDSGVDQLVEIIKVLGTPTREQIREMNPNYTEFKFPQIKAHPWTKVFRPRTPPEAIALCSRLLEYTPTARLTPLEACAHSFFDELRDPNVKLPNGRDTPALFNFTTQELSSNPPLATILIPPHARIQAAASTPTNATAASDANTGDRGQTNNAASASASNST
Method: as §1
In a final reaction volume of 25 μL, GSK3β (h) (5-10 mU) is incubated with 8 mM MOPS pH 7.0, 0.2 mM EDTA, 20 μM […](p)EDEEE [SEQ ID NO: 57] (phospho GS2 peptide), 10 mM MgAcetate and [γ-^33P-ATP] (specific activity approx. 500 cpm/pmol, concentration as required). The reaction is initiated by the addition of the MgATP mix. After incubation for 40 minutes at room temperature, the reaction is stopped by the addition of 5 μL of a 3% phosphoric acid solution. 10 μL of the reaction is then spotted onto a P30 filtermat and washed three times for 5 minutes in 50 mM phosphoric acid and once in methanol prior to drying and scintillation counting.
as §3, §4

PDGFRβ = biological target: T3, PDGFRβ (Homo sapiens, UniProt P09619); assay: Millipore radiometric kinase activity assay, PDGFRβ (h)
T3 construct: purchased Millipore (radiometric assay service)
T3 sequence (P09619 33-1106): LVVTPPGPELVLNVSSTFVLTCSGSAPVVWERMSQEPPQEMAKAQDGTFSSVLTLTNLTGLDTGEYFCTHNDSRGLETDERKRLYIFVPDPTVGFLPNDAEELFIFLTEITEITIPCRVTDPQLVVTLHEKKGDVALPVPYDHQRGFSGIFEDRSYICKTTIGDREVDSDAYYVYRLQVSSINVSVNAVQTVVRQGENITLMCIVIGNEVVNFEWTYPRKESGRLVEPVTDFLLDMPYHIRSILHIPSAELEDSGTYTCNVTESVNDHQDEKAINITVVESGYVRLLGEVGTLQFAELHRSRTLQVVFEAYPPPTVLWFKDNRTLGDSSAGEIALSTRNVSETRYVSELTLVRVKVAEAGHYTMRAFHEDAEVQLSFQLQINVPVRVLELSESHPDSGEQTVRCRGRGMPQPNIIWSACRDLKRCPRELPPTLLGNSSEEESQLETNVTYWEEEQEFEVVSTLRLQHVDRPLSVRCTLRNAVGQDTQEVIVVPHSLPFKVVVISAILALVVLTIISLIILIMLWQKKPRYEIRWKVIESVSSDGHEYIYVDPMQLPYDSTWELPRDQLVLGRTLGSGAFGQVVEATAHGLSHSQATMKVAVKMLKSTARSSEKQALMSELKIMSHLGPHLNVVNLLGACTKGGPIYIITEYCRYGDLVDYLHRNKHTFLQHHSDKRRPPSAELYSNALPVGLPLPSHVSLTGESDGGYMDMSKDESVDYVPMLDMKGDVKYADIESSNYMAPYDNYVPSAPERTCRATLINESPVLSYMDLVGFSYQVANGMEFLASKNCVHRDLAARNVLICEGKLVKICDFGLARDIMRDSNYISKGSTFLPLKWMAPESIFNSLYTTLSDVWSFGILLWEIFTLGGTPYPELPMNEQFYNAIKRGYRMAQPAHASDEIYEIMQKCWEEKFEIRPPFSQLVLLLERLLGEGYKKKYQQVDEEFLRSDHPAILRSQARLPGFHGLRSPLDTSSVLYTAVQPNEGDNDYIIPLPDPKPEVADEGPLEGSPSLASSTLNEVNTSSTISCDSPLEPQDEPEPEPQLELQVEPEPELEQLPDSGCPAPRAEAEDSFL
Method: as §1
In a final reaction volume of 25 μL, PDGFRβ (h) (5-10 mU) is incubated with 8 mM MOPS pH 7.0, 0.2 mM EDTA, 0.1 mg/mL poly(Glu, Tyr) 4:1, 10 mM MnCl2, 10 mM MgAcetate and [γ-^33P-ATP] (specific activity approx. 500 cpm/pmol, concentration as required). The reaction is initiated by the addition of the MgATP mix. After incubation for 40 minutes at room temperature, the reaction is stopped by the addition of 5 μL of a 3% phosphoric acid solution. 10 μL of the reaction is then spotted onto a Filtermat A and washed three times for 5 minutes in 75 mM phosphoric acid and once in methanol prior to drying and scintillation counting.
as §3, §4

PKCβI = biological target: T4, PKCβI (Homo sapiens, UniProt P05771); assay: Millipore radiometric kinase activity assay, PKCβI (h)
T4 construct: purchased Millipore (radiometric assay service)
T4 sequence (P05771 whole entry): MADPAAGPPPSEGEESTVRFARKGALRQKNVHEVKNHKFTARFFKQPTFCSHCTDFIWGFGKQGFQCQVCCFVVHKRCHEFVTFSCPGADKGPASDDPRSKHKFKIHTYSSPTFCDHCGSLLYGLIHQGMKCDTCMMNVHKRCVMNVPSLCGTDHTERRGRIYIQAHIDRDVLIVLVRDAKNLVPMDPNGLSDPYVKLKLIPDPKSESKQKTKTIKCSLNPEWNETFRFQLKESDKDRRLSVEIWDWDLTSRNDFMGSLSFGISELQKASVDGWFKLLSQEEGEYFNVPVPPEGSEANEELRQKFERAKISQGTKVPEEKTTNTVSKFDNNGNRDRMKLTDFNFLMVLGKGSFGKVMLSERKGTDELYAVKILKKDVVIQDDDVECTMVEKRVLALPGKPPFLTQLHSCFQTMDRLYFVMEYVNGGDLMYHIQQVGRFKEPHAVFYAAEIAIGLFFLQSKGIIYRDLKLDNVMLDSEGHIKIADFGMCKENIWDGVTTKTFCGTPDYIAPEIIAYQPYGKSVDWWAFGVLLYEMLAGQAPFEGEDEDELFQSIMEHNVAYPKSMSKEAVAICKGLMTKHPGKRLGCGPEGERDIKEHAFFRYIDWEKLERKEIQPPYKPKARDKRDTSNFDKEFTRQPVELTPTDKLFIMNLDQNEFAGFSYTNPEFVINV
Method: as §1
In a final reaction volume of 25 μL, PKCβI (h) (5-10 mU) is incubated with 20 mM HEPES pH 7.4, 0.03% Triton X-100, 0.1 mM CaCl2, 0.1 mg/mL phosphatidylserine, 10 μg/mL diacylglycerol, 0.1 mg/mL histone H1, 10 mM MgAcetate and [γ-^33P-ATP] (specific activity approx. 500 cpm/pmol, concentration as required). The reaction is initiated by the addition of the MgATP mix. After incubation for 40 minutes at room temperature, the reaction is stopped by the addition of 5 μL of a 3% phosphoric acid solution. 10 μL of the reaction is then spotted onto a P30 filtermat and washed three times for 5 minutes in 75 mM phosphoric acid and once in methanol prior to drying and scintillation counting.
as §3, §4

TrkA = biological target: T5, TrkA (Homo sapiens, UniProt P04629); assay: Millipore radiometric kinase activity assay, TrkA (h)
T5 construct: purchased Millipore (radiometric assay service)
T5 sequence (P04629 33-796): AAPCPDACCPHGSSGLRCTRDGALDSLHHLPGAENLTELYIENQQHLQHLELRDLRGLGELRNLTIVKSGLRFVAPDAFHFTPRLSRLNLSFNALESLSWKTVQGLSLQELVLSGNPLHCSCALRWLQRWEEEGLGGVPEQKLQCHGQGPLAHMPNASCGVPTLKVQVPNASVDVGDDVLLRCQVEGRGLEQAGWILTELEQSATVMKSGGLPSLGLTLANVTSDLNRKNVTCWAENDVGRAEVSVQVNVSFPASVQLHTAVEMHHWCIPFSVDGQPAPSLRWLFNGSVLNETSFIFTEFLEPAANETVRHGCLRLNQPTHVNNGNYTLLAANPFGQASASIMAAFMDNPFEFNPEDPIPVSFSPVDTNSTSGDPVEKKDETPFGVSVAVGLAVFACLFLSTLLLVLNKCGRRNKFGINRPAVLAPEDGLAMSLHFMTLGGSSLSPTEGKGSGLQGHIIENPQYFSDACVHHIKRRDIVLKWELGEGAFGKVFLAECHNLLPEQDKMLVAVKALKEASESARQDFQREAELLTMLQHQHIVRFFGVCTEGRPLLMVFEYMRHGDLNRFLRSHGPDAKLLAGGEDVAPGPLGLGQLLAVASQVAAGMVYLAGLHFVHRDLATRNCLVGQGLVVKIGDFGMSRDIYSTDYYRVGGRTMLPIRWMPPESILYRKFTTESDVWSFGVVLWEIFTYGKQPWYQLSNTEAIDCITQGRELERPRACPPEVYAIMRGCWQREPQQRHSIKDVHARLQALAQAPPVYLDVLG
Method: as §1
as §2, with “μL, TrkA” for “μL, Abl”, “EDTA, 250” for “EDTA, 50”, “NO: 56],” for “NO: 48],”
as §3, §4

T1 sequence (P00519 whole entry): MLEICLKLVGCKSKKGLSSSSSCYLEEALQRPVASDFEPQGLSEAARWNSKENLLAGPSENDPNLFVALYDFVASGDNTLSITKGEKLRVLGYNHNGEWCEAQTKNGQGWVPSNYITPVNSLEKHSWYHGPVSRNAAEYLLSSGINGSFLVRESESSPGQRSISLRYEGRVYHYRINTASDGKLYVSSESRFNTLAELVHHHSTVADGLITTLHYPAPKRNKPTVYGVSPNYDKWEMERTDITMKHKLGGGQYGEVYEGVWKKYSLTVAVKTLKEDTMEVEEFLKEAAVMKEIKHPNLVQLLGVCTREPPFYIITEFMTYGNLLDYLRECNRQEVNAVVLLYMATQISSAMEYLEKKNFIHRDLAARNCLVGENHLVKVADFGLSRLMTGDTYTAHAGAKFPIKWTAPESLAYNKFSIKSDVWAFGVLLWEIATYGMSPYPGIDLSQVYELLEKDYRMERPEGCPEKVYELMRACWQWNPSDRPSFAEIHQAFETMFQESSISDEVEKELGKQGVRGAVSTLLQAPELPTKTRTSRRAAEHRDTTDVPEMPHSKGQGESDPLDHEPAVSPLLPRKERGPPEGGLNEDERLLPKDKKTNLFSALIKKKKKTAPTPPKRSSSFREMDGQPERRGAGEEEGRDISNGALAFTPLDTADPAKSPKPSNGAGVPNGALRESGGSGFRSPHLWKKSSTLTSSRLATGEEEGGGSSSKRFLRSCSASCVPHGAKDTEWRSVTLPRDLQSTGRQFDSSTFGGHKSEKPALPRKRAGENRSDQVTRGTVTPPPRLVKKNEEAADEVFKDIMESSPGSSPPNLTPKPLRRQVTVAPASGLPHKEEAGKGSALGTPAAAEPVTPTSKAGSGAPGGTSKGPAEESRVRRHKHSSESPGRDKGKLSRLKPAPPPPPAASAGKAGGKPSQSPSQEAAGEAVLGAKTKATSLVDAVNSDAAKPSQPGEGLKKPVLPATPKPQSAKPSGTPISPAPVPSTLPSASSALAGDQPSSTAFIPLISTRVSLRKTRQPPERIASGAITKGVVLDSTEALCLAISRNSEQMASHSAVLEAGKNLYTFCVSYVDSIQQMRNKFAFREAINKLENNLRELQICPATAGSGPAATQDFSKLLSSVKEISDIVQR

| Sequence | Abl Kinase Activity (%) (+SD %) (Abl; peptide 100 μM) | AMPK Kinase Activity (%) (+SD %) (AMPK; peptide 100 μM) | GSK3β Kinase Activity (%) (+SD %) (GSK3β; peptide 100 μM) | PDGFRβ Kinase Activity (%) (+SD %) (PDGFRβ; peptide 100 μM) | PKCβ1 Kinase Activity (%) (+SD %) (PKCβI; peptide 100 μM) | TrkA Kinase Activity (%) (+SD %) (TrkA; peptide 100 μM) | Abl Kinase Activity (%) (+SD %) (Abl; peptide 30 μM) | AMPK Kinase Activity (%) (+SD %) (AMPK; peptide 30 μM) | GSK3β Kinase Activity (%) (+SD %) (GSK3β; peptide 30 μM) | PDGFRβ Kinase Activity (%) (+SD %) (PDGFRβ; peptide 30 μM) | PKCβ1 Kinase Activity (%) (+SD %) (PKCβI; peptide 30 μM) | TrkA Kinase Activity (%) (+SD %) (TrkA; peptide 30 μM) |
| --- | --- | --- | --- | --- | --- | --- | --- | --- | --- | --- | --- | --- |
| KAFAKLAARLYRKALARQLGVAA | 55 (0) % | 118 (7) % | 184 (1) % | 66 (8) % | 23 (3) % | 16 (2) % | – | – | – | – | – | – |
| WLRRIKAWLRRIKALNRQLGVAA | 41 (2) % | 101 (6) % | 188 (4) % | 92 (4) % | 73 (0) % | 17 (2) % | 24 (5) % | 36 (4) % | 129 (2) % | 42 (4) % | 8 (4) % | 6 (1) % |
